T1: PUF4 RNA-binding domain (Saccharomyces cerevisiae, UniProt P25339 537-888)
T1 sequence: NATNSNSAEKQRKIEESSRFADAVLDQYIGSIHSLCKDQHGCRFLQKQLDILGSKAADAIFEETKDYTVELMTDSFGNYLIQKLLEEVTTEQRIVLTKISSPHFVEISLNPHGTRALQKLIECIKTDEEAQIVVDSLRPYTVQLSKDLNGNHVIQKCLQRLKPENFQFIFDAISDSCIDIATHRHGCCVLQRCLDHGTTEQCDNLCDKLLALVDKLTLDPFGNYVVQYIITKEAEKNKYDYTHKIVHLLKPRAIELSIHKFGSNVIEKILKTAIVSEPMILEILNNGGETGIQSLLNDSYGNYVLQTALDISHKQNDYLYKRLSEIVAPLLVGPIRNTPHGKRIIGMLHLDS


Molecular target: T1, PUF4 RNA-binding domain
Test: Mg; RNA-MaP; 20 mM Na-HEPES pH 7.4, 30 mM KOAc, 0.75 mM MgCl2, 0.1% Tween-20, 5% glycerol, 0.1 mg/mL BSA, 2 mM DTT; 25 C; 0.0125-409.6 nM protein
Conditions: tags: N-His6-TEV cleaved; C-SNAP kept, Cy3B-labelled; label: tethered on chip by stalled RNA polymerase

Which Kd does the source give for UCUCUUUGCUCUAUAUUAUCUCUU (ssRNA) [Ie_S1_P4E.1_K4.1_C4.1_H4.1_[+2CTC]_A4.1_F4.1_T4.1] here?
The Kd was 583 nM.

UCUCUUCUUGUAUAUAUCUCUAUCUCUU (ssRNA) [Ie_S1_P3E.2_K3.1_C3.2_H3.1_A3.1_F3.1_[+8TCTC]_T3.2] was tested. Which Kd did it give?
The Kd was 5.63 nM.

Which Kd does the source give for UCUCUUCUUGUAUAUAUCUCUUAUCUCUU (ssRNA) [Ie_S1_P3E.2_K3.1_C3.2_H3.1_A3.1_F3.1_[+8TCTCT]_T3.2] here?
The Kd was 8.49 nM.

With UCUCUUCUUGUAUAUACUCUCUAUCUCUU (ssRNA) [Ie_S1_P3E.2_K3.1_C3.2_H3.1_A3.1_F3.1_[+8CTCTC]_T3.2] as the binder, how does the Kd read?
Its Kd is 11.7 nM.

Which Kd does the source give for UCUCUUUGCCUAUAUUAUCUCUU (ssRNA) [Ie_S1_P4E.1_K4.1_C4.1_H4.1_[+2CC]_A4.1_F4.1_T4.1] here?
Its Kd is 1390 nM.

With UCUCUUUUUCGUAUAUUAUCUCUU (ssRNA) [Ie_S1_P4E.1_K4.1_C4.1_H4.1_[+1TTC]_A4.1_F4.1_T4.1] as the binder, how does the Kd read?
Its Kd is 20.9 nM.

Which Kd does the source give for UCUCUUCUUGUAUAUAUUCUAUCUCUU (ssRNA) [Ie_S1_P3E.2_K3.1_C3.2_H3.1_A3.1_F3.1_[+8TTC]_T3.2] here?
Its Kd is 4.4 nM.

For UCUCUUUGCUAUAUUAUCUCUU (ssRNA) [Ie_S1_P4E.1_K4.1_C4.1_H4.1_[+2C]_A4.1_F4.1_T4.1], which Kd is on record?
The Kd was 107 nM.

For UCUCUUUGCCUUAUAUUAUCUCUU (ssRNA) [Ie_S1_P4E.1_K4.1_C4.1_H4.1_[+2CCT]_A4.1_F4.1_T4.1], which Kd is on record?
Its Kd is 1330 nM.

With UCUCUUUUGUAUAUUAUCUCUU (ssRNA) [Ie_S1_P4E.1_K4.1_C4.1_H4.1_[+1T]_A4.1_F4.1_T4.1] as the binder, how does the Kd read?
The Kd was 0.567 nM.

How did the Kd turn out when UCUCUUUCCCUUGUAUAUUAUCUCUU (ssRNA) [Ie_S1_P4E.1_K4.1_C4.1_H4.1_[+1CCCTT]_A4.1_F4.1_T4.1] was run?
Its Kd is 0.454 nM.

With UCUCUUUUCUCUGUAUAUUAUCUCUU (ssRNA) [Ie_S1_P4E.1_K4.1_C4.1_H4.1_[+1TCTCT]_A4.1_F4.1_T4.1] as the binder, how does the Kd read?
The Kd was 0.586 nM.

How did the Kd turn out when UCUCUUUCCUGUAUAUUAUCUCUU (ssRNA) [Ie_S1_P4E.1_K4.1_C4.1_H4.1_[+1CCT]_A4.1_F4.1_T4.1] was run?
The Kd was 0.583 nM.

UCUCUUUGUUUCCUAUAUUAUCUCUU (ssRNA) [Ie_S1_P4E.1_K4.1_C4.1_H4.1_[+3TTCCT]_A4.1_F4.1_T4.1] was tested. Which Kd did it give?
Its Kd is 58.7 nM.

With UCUCUUUUCUCGUAUAUUAUCUCUU (ssRNA) [Ie_S1_P4E.1_K4.1_C4.1_H4.1_[+1TCTC]_A4.1_F4.1_T4.1] as the binder, how does the Kd read?
The Kd was 19.7 nM.

For UCUCUUCUUGUAUAUAUUCCUAUCUCUU (ssRNA) [Ie_S1_P3E.2_K3.1_C3.2_H3.1_A3.1_F3.1_[+8TTCC]_T3.2], which Kd is on record?
Its Kd is 6.86 nM.

For UCUCUUUGUACUUAUUAUCUCUU (ssRNA) [Ie_S1_P5E.1_K5.1_C5.1_H5.1_[+4C]_A5.1_F5.1_T5.1], which Kd is on record?
Its Kd is 14.3 nM.

UCUCUUUUUGUAUAUUAUCUCUU (ssRNA) [Ie_S1_P4E.1_K4.1_C4.1_H4.1_[+1TT]_A4.1_F4.1_T4.1] was tested. Which Kd did it give?
The Kd was 0.914 nM.

For UCUCUUUGCUUAUAUUAUCUCUU (ssRNA) [Ie_S1_P4E.1_K4.1_C4.1_H4.1_[+2CT]_A4.1_F4.1_T4.1], which Kd is on record?
The Kd was 870 nM.

With UCUCUUUGCCUCUAUAUUAUCUCUU (ssRNA) [Ie_S1_P4E.1_K4.1_C4.1_H4.1_[+2CCTC]_A4.1_F4.1_T4.1] as the binder, how does the Kd read?
The Kd was 1010 nM.

For UCUCUUUGUCUUAUAUUAUCUCUU (ssRNA) [Ie_S1_P4E.1_K4.1_C4.1_H4.1_[+2TCT]_A4.1_F4.1_T4.1], which Kd is on record?
The Kd was 45.9 nM.

How did the Kd turn out when UCUCUUCUUGUAUAUAUCCUAUCUCUU (ssRNA) [Ie_S1_P3E.2_K3.1_C3.2_H3.1_A3.1_F3.1_[+8TCC]_T3.2] was run?
The Kd was 10.2 nM.

UCUCUUUGCCUCUUAUAUUAUCUCUU (ssRNA) [Ie_S1_P4E.1_K4.1_C4.1_H4.1_[+2CCTCT]_A4.1_F4.1_T4.1] was tested. Which Kd did it give?
Its Kd is 2130 nM.

UCUCUUUGUCUAUAUUAUCUCUU (ssRNA) [Ie_S1_P4E.1_K4.1_C4.1_H4.1_[+2TC]_A4.1_F4.1_T4.1] was tested. Which Kd did it give?
The Kd was 82.9 nM.

For UCUCUUUUUCCUGUAUAUUAUCUCUU (ssRNA) [Ie_S1_P4E.1_K4.1_C4.1_H4.1_[+1TTCCT]_A4.1_F4.1_T4.1], which Kd is on record?
Its Kd is 1.18 nM.

With UCUCUUUCUCUGUAUAUUAUCUCUU (ssRNA) [Ie_S1_P4E.1_K4.1_C4.1_H4.1_[+1CTCT]_A4.1_F4.1_T4.1] as the binder, how does the Kd read?
Its Kd is 0.881 nM.

With UCUCUUUCUUGUAUAUUAUCUCUU (ssRNA) [Ie_S1_P4E.1_K4.1_C4.1_H4.1_[+1CTT]_A4.1_F4.1_T4.1] as the binder, how does the Kd read?
The Kd was 0.599 nM.

With UCUCUUUCCUCUGUAUAUUAUCUCUU (ssRNA) [Ie_S1_P4E.1_K4.1_C4.1_H4.1_[+1CCTCT]_A4.1_F4.1_T4.1] as the binder, how does the Kd read?
The Kd was 0.539 nM.

UCUCUUUGUUCUCAUAUUAUCUCUU (ssRNA) [Ie_S1_P4E.1_K4.1_C4.1_H4.1_[+3TCTC]_A4.1_F4.1_T4.1] was tested. Which Kd did it give?
Its Kd is 103 nM.

UCUCUUUCCCUGUAUAUUAUCUCUU (ssRNA) [Ie_S1_P4E.1_K4.1_C4.1_H4.1_[+1CCCT]_A4.1_F4.1_T4.1] was tested. Which Kd did it give?
Its Kd is 1.2 nM.

For UCUCUUUGCUCUCUAUAUUAUCUCUU (ssRNA) [Ie_S1_P4E.1_K4.1_C4.1_H4.1_[+2CTCTC]_A4.1_F4.1_T4.1], which Kd is on record?
The Kd was 733 nM.
